This passage reports IC50 results from patent US20140087995A1 (published 2014).

Numbered stars: 1 amine (or outer) side, 2 acyl side, 3 side chain; on linkers, the order of the positions; unused ones are H or OH. Bridge positions count the residues as written; N and C are the ends. Side chains are listed from the residue outwards. Ends that are not written are not given here. * marks the point of attachment. C20 diacid = O=C(O)CCCCCCCCCCCCCCCCCCC(=O)*; γGlu = O=C(O)[C@H](CCC(=O)[*:2])N[*:1]; AEEA = NCCOCCOCC(=O)O

The labels stand for the following.
T1: human calcitonin receptor (human, UniProt P30988 25-474)
T1 construct: whole, on cells; also called hCTR; hCT
T1 sequence (looked up): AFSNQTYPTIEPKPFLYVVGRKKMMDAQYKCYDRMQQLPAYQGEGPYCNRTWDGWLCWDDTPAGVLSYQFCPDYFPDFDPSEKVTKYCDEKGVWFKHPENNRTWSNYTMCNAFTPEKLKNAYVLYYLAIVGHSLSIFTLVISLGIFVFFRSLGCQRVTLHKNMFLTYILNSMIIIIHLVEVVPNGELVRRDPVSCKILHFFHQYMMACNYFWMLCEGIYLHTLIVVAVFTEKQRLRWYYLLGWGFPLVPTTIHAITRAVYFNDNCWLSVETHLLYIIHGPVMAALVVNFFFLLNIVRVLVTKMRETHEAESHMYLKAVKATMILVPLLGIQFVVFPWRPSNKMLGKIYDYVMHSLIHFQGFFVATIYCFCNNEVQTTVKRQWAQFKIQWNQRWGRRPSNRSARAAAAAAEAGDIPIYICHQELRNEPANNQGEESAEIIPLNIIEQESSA

B1: N^ε1-[2-[2-[2-[[(4S)-4-carboxy-4-(19-carboxynonadecanoylamino)butanoyl]amino]ethoxy]ethoxy]acetyl]-[His14,Arg17,Pro21,Pro27,Pro34]-h-amylin (peptide)
peptide: K([AEEA-γGlu-C20 diacid])CNTATCATQRLAHFLRHSSPNFGAIPSSTNVGPNTY-NH2
modifications: disulfide 2-7; N-terminus assumed
SMILES: CC[C@H](C)[C@H](NC(=O)[C@H](C)NC(=O)CNC(=O)[C@H](Cc1ccccc1)NC(=O)[C@H](CC(N)=O)NC(=O)[C@@H]1CCCN1C(=O)[C@H](CO)NC(=O)[C@H](CO)NC(=O)[C@H](Cc1c[nH]cn1)NC(=O)[C@H](CCCNC(=N)N)NC(=O)[C@H](CC(C)C)NC(=O)[C@H](Cc1ccccc1)NC(=O)[C@H](Cc1c[nH]cn1)NC(=O)[C@H](C)NC(=O)[C@H](CC(C)C)NC(=O)[C@H](CCCNC(=N)N)NC(=O)[C@H](CCC(N)=O)NC(=O)[C@@H](NC(=O)[C@H](C)NC(=O)[C@@H]1CSSC[C@H](NC(=O)[C@@H](N)CCCCNC(=O)COCCOCCNC(=O)CC[C@H](NC(=O)CCCCCCCCCCCCCCCCCCC(=O)O)C(=O)O)C(=O)N[C@@H](CC(N)=O)C(=O)N[C@@H]([C@@H](C)O)C(=O)N[C@@H](C)C(=O)N[C@@H]([C@@H](C)O)C(=O)N1)[C@@H](C)O)C(=O)N1CCC[C@H]1C(=O)N[C@@H](CO)C(=O)N[C@@H](CO)C(=O)N[C@H](C(=O)N[C@@H](CC(N)=O)C(=O)N[C@H](C(=O)NCC(=O)N1CCC[C@H]1C(=O)N[C@@H](CC(N)=O)C(=O)N[C@H](C(=O)N[C@@H](Cc1ccc(O)cc1)C(N)=O)[C@@H](C)O)C(C)C)[C@@H](C)O
notes: also called compound 68
B2: N^ε1-[(4S)-4-carboxy-4-(19-carboxynonadecanoylamino)butanoyl]-[Arg14,Arg17,Pro21,Pro27,Pro31]-h-amylin (peptide)
peptide: K([γGlu-C20 diacid])CNTATCATQRLARFLRHSSPNFGAIPSSTPVGSNTY-NH2
modifications: disulfide 2-7; N-terminus assumed
SMILES: CC[C@H](C)[C@H](NC(=O)[C@H](C)NC(=O)CNC(=O)[C@H](Cc1ccccc1)NC(=O)[C@H](CC(N)=O)NC(=O)[C@@H]1CCCN1C(=O)[C@H](CO)NC(=O)[C@H](CO)NC(=O)[C@H](Cc1c[nH]cn1)NC(=O)[C@H](CCCNC(=N)N)NC(=O)[C@H](CC(C)C)NC(=O)[C@H](Cc1ccccc1)NC(=O)[C@H](CCCNC(=N)N)NC(=O)[C@H](C)NC(=O)[C@H](CC(C)C)NC(=O)[C@H](CCCNC(=N)N)NC(=O)[C@H](CCC(N)=O)NC(=O)[C@@H](NC(=O)[C@H](C)NC(=O)[C@@H]1CSSC[C@H](NC(=O)[C@@H](N)CCCCNC(=O)CC[C@H](NC(=O)CCCCCCCCCCCCCCCCCCC(=O)O)C(=O)O)C(=O)N[C@@H](CC(N)=O)C(=O)N[C@@H]([C@@H](C)O)C(=O)N[C@@H](C)C(=O)N[C@@H]([C@@H](C)O)C(=O)N1)[C@@H](C)O)C(=O)N1CCC[C@H]1C(=O)N[C@@H](CO)C(=O)N[C@@H](CO)C(=O)N[C@H](C(=O)N1CCC[C@H]1C(=O)N[C@H](C(=O)NCC(=O)N[C@@H](CO)C(=O)N[C@@H](CC(N)=O)C(=O)N[C@H](C(=O)N[C@@H](Cc1ccc(O)cc1)C(N)=O)[C@@H](C)O)C(C)C)[C@@H](C)O
notes: also called compound 63
B3: N^ε1-[2-[2-[2-[[(4S)-4-carboxy-4-(19-carboxynonadecanoylamino)butanoyl]amino]ethoxy]ethoxy]acetyl]-[Ser14,Arg17,Pro21,Pro27,Pro31]-h-amylin (peptide)
peptide: K([AEEA-γGlu-C20 diacid])CNTATCATQRLASFLRHSSPNFGAIPSSTPVGSNTY-NH2
modifications: disulfide 2-7; N-terminus assumed
SMILES: CC[C@H](C)[C@H](NC(=O)[C@H](C)NC(=O)CNC(=O)[C@H](Cc1ccccc1)NC(=O)[C@H](CC(N)=O)NC(=O)[C@@H]1CCCN1C(=O)[C@H](CO)NC(=O)[C@H](CO)NC(=O)[C@H](Cc1c[nH]cn1)NC(=O)[C@H](CCCNC(=N)N)NC(=O)[C@H](CC(C)C)NC(=O)[C@H](Cc1ccccc1)NC(=O)[C@H](CO)NC(=O)[C@H](C)NC(=O)[C@H](CC(C)C)NC(=O)[C@H](CCCNC(=N)N)NC(=O)[C@H](CCC(N)=O)NC(=O)[C@@H](NC(=O)[C@H](C)NC(=O)[C@@H]1CSSC[C@H](NC(=O)[C@@H](N)CCCCNC(=O)COCCOCCNC(=O)CC[C@H](NC(=O)CCCCCCCCCCCCCCCCCCC(=O)O)C(=O)O)C(=O)N[C@@H](CC(N)=O)C(=O)N[C@@H]([C@@H](C)O)C(=O)N[C@@H](C)C(=O)N[C@@H]([C@@H](C)O)C(=O)N1)[C@@H](C)O)C(=O)N1CCC[C@H]1C(=O)N[C@@H](CO)C(=O)N[C@@H](CO)C(=O)N[C@H](C(=O)N1CCC[C@H]1C(=O)N[C@H](C(=O)NCC(=O)N[C@@H](CO)C(=O)N[C@@H](CC(N)=O)C(=O)N[C@H](C(=O)N[C@@H](Cc1ccc(O)cc1)C(N)=O)[C@@H](C)O)C(C)C)[C@@H](C)O
notes: also called compound 73
B4: N^ε1-[(4S)-4-carboxy-4-(19-carboxynonadecanoylamino)butanoyl]-[Arg14,Arg17,Pro21,Pro27,Pro34]-h-amylin (peptide)
peptide: K([γGlu-C20 diacid])CNTATCATQRLARFLRHSSPNFGAIPSSTNVGPNTY-NH2
modifications: disulfide 2-7; N-terminus assumed
SMILES: CC[C@H](C)[C@H](NC(=O)[C@H](C)NC(=O)CNC(=O)[C@H](Cc1ccccc1)NC(=O)[C@H](CC(N)=O)NC(=O)[C@@H]1CCCN1C(=O)[C@H](CO)NC(=O)[C@H](CO)NC(=O)[C@H](Cc1c[nH]cn1)NC(=O)[C@H](CCCNC(=N)N)NC(=O)[C@H](CC(C)C)NC(=O)[C@H](Cc1ccccc1)NC(=O)[C@H](CCCNC(=N)N)NC(=O)[C@H](C)NC(=O)[C@H](CC(C)C)NC(=O)[C@H](CCCNC(=N)N)NC(=O)[C@H](CCC(N)=O)NC(=O)[C@@H](NC(=O)[C@H](C)NC(=O)[C@@H]1CSSC[C@H](NC(=O)[C@@H](N)CCCCNC(=O)CC[C@H](NC(=O)CCCCCCCCCCCCCCCCCCC(=O)O)C(=O)O)C(=O)N[C@@H](CC(N)=O)C(=O)N[C@@H]([C@@H](C)O)C(=O)N[C@@H](C)C(=O)N[C@@H]([C@@H](C)O)C(=O)N1)[C@@H](C)O)C(=O)N1CCC[C@H]1C(=O)N[C@@H](CO)C(=O)N[C@@H](CO)C(=O)N[C@H](C(=O)N[C@@H](CC(N)=O)C(=O)N[C@H](C(=O)NCC(=O)N1CCC[C@H]1C(=O)N[C@@H](CC(N)=O)C(=O)N[C@H](C(=O)N[C@@H](Cc1ccc(O)cc1)C(N)=O)[C@@H](C)O)C(C)C)[C@@H](C)O
notes: also called compound 65
B5: N^ε1-[2-[2-[2-[[(4S)-4-carboxy-4-(19-carboxynonadecanoylamino)butanoyl]amino]ethoxy]ethoxy]acetyl]-[His14,Arg17,Pro21,Pro27]-h-amylin (peptide)
peptide: K([AEEA-γGlu-C20 diacid])CNTATCATQRLAHFLRHSSPNFGAIPSSTNVGSNTY-NH2
modifications: disulfide 2-7; N-terminus assumed
SMILES: CC[C@H](C)[C@H](NC(=O)[C@H](C)NC(=O)CNC(=O)[C@H](Cc1ccccc1)NC(=O)[C@H](CC(N)=O)NC(=O)[C@@H]1CCCN1C(=O)[C@H](CO)NC(=O)[C@H](CO)NC(=O)[C@H](Cc1c[nH]cn1)NC(=O)[C@H](CCCNC(=N)N)NC(=O)[C@H](CC(C)C)NC(=O)[C@H](Cc1ccccc1)NC(=O)[C@H](Cc1c[nH]cn1)NC(=O)[C@H](C)NC(=O)[C@H](CC(C)C)NC(=O)[C@H](CCCNC(=N)N)NC(=O)[C@H](CCC(N)=O)NC(=O)[C@@H](NC(=O)[C@H](C)NC(=O)[C@@H]1CSSC[C@H](NC(=O)[C@@H](N)CCCCNC(=O)COCCOCCNC(=O)CC[C@H](NC(=O)CCCCCCCCCCCCCCCCCCC(=O)O)C(=O)O)C(=O)N[C@@H](CC(N)=O)C(=O)N[C@@H]([C@@H](C)O)C(=O)N[C@@H](C)C(=O)N[C@@H]([C@@H](C)O)C(=O)N1)[C@@H](C)O)C(=O)N1CCC[C@H]1C(=O)N[C@@H](CO)C(=O)N[C@@H](CO)C(=O)N[C@H](C(=O)N[C@@H](CC(N)=O)C(=O)N[C@H](C(=O)NCC(=O)N[C@@H](CO)C(=O)N[C@@H](CC(N)=O)C(=O)N[C@H](C(=O)N[C@@H](Cc1ccc(O)cc1)C(N)=O)[C@@H](C)O)C(C)C)[C@@H](C)O
notes: also called compound 69
B6: N^ε1-[2-[2-[2-[[(4S)-4-carboxy-4-(19-carboxynonadecanoylamino)butanoyl]amino]ethoxy]ethoxy]acetyl]-[Lys14,Arg17,Pro21,Pro27,Pro31]-h-amylin (peptide)
peptide: K([AEEA-γGlu-C20 diacid])CNTATCATQRLAKFLRHSSPNFGAIPSSTPVGSNTY-NH2
modifications: disulfide 2-7; N-terminus assumed
SMILES: CC[C@H](C)[C@H](NC(=O)[C@H](C)NC(=O)CNC(=O)[C@H](Cc1ccccc1)NC(=O)[C@H](CC(N)=O)NC(=O)[C@@H]1CCCN1C(=O)[C@H](CO)NC(=O)[C@H](CO)NC(=O)[C@H](Cc1c[nH]cn1)NC(=O)[C@H](CCCNC(=N)N)NC(=O)[C@H](CC(C)C)NC(=O)[C@H](Cc1ccccc1)NC(=O)[C@H](CCCCN)NC(=O)[C@H](C)NC(=O)[C@H](CC(C)C)NC(=O)[C@H](CCCNC(=N)N)NC(=O)[C@H](CCC(N)=O)NC(=O)[C@@H](NC(=O)[C@H](C)NC(=O)[C@@H]1CSSC[C@H](NC(=O)[C@@H](N)CCCCNC(=O)COCCOCCNC(=O)CC[C@H](NC(=O)CCCCCCCCCCCCCCCCCCC(=O)O)C(=O)O)C(=O)N[C@@H](CC(N)=O)C(=O)N[C@@H]([C@@H](C)O)C(=O)N[C@@H](C)C(=O)N[C@@H]([C@@H](C)O)C(=O)N1)[C@@H](C)O)C(=O)N1CCC[C@H]1C(=O)N[C@@H](CO)C(=O)N[C@@H](CO)C(=O)N[C@H](C(=O)N1CCC[C@H]1C(=O)N[C@H](C(=O)NCC(=O)N[C@@H](CO)C(=O)N[C@@H](CC(N)=O)C(=O)N[C@H](C(=O)N[C@@H](Cc1ccc(O)cc1)C(N)=O)[C@@H](C)O)C(C)C)[C@@H](C)O
notes: also called compound 74

The assay addresses T1, human calcitonin receptor. The experiment in a line: SPA competition with 125I-calcitonin, membranes of BHK hCTR cells (Assay VII). In a few lines: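 BHK hCTR membranes 35 ng/μL + SPA beads 0.05 mg/well; buffer 50 mM Hepes pH 7.4, 1 mM CaCl2, 5 mM MgCl₂, 0.1% OA, 0.02% Tween20. 120 min, 25° C., shaking. Scintillation count; IC50 by one-site binding competition.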
A word on the IC50: it is the concentration needed to halve the response being measured. Turning to B1, the IC50 was found to be 5.66 nM.

As to B2, the 50% inhibitory concentration (IC50) amounted to 130 nM.

Turning to B3, the half-maximal inhibitory concentration (IC50) is 5.38 nM.

On to B4, for which the 50% inhibitory concentration (IC50) turned out to be 53.5 nM.

With B5, the IC50 was 8.68 nM.

With B6, the IC50 amounted to 79.9 nM.
